Results as given in article PMC4263517.

Target: Hfq (Pseudomonas aeruginosa (PAO1?)) (UniProt Q9HUM0)
Assay: EMSA
Conditions: biotinylated UTP 1:3 to unlabeled UTP; 50 mM Tris-HCl pH 7.5, 250 mM NaCl, 250 mM KCl (Hfq annealing buffer); RNA renatured 80 C 1 min; room temperature 20 min; 7.5% TGX native gel

Sequence of Hfq (Pseudomonas aeruginosa (PAO1?)) (Q9HUM0 whole entry): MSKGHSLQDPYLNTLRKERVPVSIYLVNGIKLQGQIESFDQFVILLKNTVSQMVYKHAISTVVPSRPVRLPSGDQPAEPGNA

**Q.** How did the binding turn out when “AACUGGUCGCGAGAUCAGCCGGUAAGCUGAGAGACCCACGCAGUCGGACUCUUCAGAUUAUCUCCUCAUCAGGCUAAUCACGGUUUUUGACCCGGCACUUUGCCGGGUCUUUUUUUGCCUGCGAUUCGGCCGGAGACGACCGUUCAUCGGCUGGCGAUGGAAUGAAUGAGAACCGGCUUGACCUGAUAAUGAGAAUAGUUAUUAUUACACCAACUGGUCGCGAGGCCAGCAGGUAAGCUGAGAGACCAAGCAGUCGGACUCUUCAGAUUAUCUCCUCAUCAGGCUAAUCACGGUUUCGACCCGGCACUUUGCCGGGUCUUUUUUU [PrrH sRNA]” was run?
**A.** 11 ng/µL
